According to patent publication US20250297012A1 (HEFEI TG IMMUNOPHARMA, published 2025):

Tests used:
[1] = target: T1, human CD16B^SH (Sino Biological, 11046-H08H2) (human, UniProt O75015 17-200); experiment: ELISA, plate coated with human CD16B^SH at 2 µg/mL, HRP-goat anti-mouse IgG, OD450
T1 construct: Bought protein; SH polymorphic form; also called human CD16B^SH protein
Protocol: (§1) The ELISA experiment was performed to detect the binding properties of the murine CD16A antibody m40F5 obtained in Example 1. […] Then, the plate was then washed three times with PBST (0.05% Tween 20-PBS, pH 7.2). 300 μL of blocking buffer (1% BSA, 0.05% Tween20-PBS, pH 7.2) was added to the plate and left to stand at room temperature for 2 hours. Then, the plate was washed again three times with PBST. Murine antibody m40F5 or control antibody LS21 (WO2006/125668 EN) was added to each well and incubated at room temperature for 1 hour.
(§2) Again, the plate was washed three times with PBST. 100 μL of HRP-goat anti-mouse IgG secondary antibody (boster, Catalog No. BA1051) diluted with the blocking buffer was added to each well and incubated at room temperature for 1 hour. The plate was washed three times with PBST. TMB was added to each well. A reaction was performed at room temperature in the dark for 2 min to 5 min. The reaction was terminated with 2 M sulfuric acid. OD450 values were read using a microplate reader.

[2] = target: T2, human CD16B^NA1 (ACRO biosystems, CDB-H5227) (human, UniProt O75015 17-200, limits assumed); experiment: ELISA, plate coated with human CD16B^NA1 at 2 µg/mL, HRP-goat anti-mouse IgG, OD450
T2 construct: Bought protein; NA1 polymorphic form; also called human CD16B^NA1 protein
T2 sequence (O75015 other isoform, or with tags, fused parts or gaps limits assumed): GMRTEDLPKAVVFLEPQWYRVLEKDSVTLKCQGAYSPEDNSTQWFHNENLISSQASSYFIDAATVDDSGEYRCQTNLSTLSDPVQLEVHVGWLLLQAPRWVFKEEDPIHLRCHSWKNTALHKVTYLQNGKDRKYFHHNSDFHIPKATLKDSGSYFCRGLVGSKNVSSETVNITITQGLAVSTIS
Protocol: as §1, §2

[3] = target: T3, human CD16B^NA2 (ACRO biosystems, CDB-H5222) (human, UniProt O75015 17-200); experiment: ELISA, plate coated with human CD16B^NA2 at 2 µg/mL, HRP-goat anti-mouse IgG, OD450
T3 construct: Bought protein; NA2 polymorphic form; also called human CD16B^NA2 protein
T3 sequence (O75015 17-200 N65S limits assumed): as the sequence (O75015 other isoform, or with tags, fused parts or gaps limits assumed) above, with R20S, N49S, D66N, V90I counted along it
Protocol: as §1, §2

[4] = target: T4, human CD16A^158F (ACRO biosystems, CDA-H5220) (human, UniProt P08637 17-208); experiment: ELISA, plate coated with human CD16A^158F at 2 µg/mL, HRP-goat anti-mouse IgG, OD450
T4 construct: extracellular domain; Bought protein; also called human CD16A extracellular segment protein
T4 sequence (P08637 17-208): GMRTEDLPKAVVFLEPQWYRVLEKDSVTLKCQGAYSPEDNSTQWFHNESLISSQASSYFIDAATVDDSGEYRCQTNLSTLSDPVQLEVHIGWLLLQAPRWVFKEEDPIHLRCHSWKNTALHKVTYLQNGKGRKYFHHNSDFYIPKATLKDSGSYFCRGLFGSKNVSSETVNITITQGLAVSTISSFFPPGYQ
Protocol: as §1, §2

[5] = target: T5, human CD16A^158V (ACRO biosystems, CD8-H52H4) (human, UniProt P08637 17-208); experiment: ELISA, plate coated with human CD16A^158V at 2 µg/mL, HRP-goat anti-mouse IgG, OD450
T5 construct: Bought protein; It is the 158V polymorphic form; also called human CD16A^158V protein
T5 sequence (P08637 17-208 F176V limits assumed): as the sequence (P08637 17-208) above, with F160V counted along it
Protocol: as §1, §2

[6] = target: T6, cynomolgus monkey CD16 (ACRO biosystems, FC6-C52H9) (cynomolgus monkey, UniProt Q8SPW2 17-208); experiment: ELISA, plate coated with cynomolgus monkey CD16 at 2 µg/mL, HRP-goat anti-mouse IgG, OD450
T6 construct: Bought protein; also called monkey CD16 protein; monkey CD16 antigen
T6 sequence (Q8SPW2 17-208 limits assumed): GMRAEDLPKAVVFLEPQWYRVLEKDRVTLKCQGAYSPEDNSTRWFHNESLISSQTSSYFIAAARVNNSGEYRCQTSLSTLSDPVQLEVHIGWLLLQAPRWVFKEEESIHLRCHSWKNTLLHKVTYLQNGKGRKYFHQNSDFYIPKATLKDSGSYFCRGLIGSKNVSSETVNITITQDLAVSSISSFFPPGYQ
Protocol: as §1, §2

[7] = target: T7, human CD16A protein on CHO-K1 cells overexpressing human CD16A (human, UniProt P08637 17-254); experiment: Flow cytometry on CHO-K1 cells overexpressing human CD16A, Alexa-647 goat anti-mouse secondary antibody, binding proportion (%)
T7 construct: also called CHO cell overexpressing a human CD16A protein
T7 sequence (P08637 17-254 limits assumed): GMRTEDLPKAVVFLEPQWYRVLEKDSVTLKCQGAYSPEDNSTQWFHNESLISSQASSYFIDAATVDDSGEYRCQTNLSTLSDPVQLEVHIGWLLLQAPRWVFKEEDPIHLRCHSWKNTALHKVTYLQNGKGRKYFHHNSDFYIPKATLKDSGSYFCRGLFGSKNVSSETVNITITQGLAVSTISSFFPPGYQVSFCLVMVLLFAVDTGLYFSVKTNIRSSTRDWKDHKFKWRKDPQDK
Protocol: (§3) The CHO-K1 cells overexpressing human CD16A or CHO-K1 cells overexpressing cynomolgus monkey CD16 obtained in Example 1 were diluted to 2×10⁶/mL with PBS and added to a 1.5 mL EP tube at a volume of 100 μL/tube. Then, 10 μL of goat serum was added to each tube. The mixture was blocked at 4° C. for 30 min. The CD16A antibody and the control antibody mlgG at gradient concentrations (5-fold serial dilution, with the highest final concentration of 10 μg/mL) were added and incubated at 4° C. for 30 minutes. Each EP tube was filled with 1 mL of PBS and centrifuged at 3,500 rpm for 5 min at 4° C. The supernatant was completely discarded, and the cells were washed once again with PBS. After another centrifugation, the supernatant was completely discarded. The cells were resuspended in 100 μL/tube of PBS. Alexa-647-conjugated goat anti-murine antibody secondary antibody (Invitrogen) was added at […]. The cells were incubated at 4° C. in the dark for 30 min, and were washed twice with PBS and centrifuged. Then, the supernatant was completely discarded. The cells were resuspended in 200 μL/tube of PBS and detected using a flow cytometer.

[8] = target: T8, cynomolgus monkey CD16 protein on CHO-K1 cells overexpressing cynomolgus monkey CD16 (cynomolgus monkey, UniProt Q8SPW2 17-254); experiment: Flow cytometry on CHO-K1 cells overexpressing cynomolgus monkey CD16, Alexa-647 goat anti-mouse secondary antibody, binding proportion (%)
T8 construct: also called CHO cell overexpressing a cynomolgus monkey CD16A protein; monkey CD16A protein
T8 sequence (Q8SPW2 17-254 limits assumed): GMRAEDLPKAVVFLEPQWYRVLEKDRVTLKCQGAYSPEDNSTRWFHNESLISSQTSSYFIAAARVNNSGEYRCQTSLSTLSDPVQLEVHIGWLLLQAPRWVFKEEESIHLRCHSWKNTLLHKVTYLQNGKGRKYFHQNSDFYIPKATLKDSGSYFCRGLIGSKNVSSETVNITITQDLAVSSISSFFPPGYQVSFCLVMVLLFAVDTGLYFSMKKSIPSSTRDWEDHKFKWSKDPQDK
Protocol: as §3

[9] = target: T9, Human BCMA (ACRO biosystems, BCA-H522y) (human, UniProt Q02223 1-54); experiment: ELISA, plate coated with human BCMA at 2 µg/mL, HRP-goat anti-human IgG, OD450
T9 construct: Bought protein; also called human BCMA protein; BCMA antigen
T9 sequence (looked up): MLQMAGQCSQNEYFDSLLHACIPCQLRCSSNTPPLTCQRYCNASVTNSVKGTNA
Protocol: (§4) Human BCMA (ACRO biosystems, BCA-H522y) or human CD16A antigen (ACRO biosystems, CDD-H52W1) was diluted to 2 μg/mL with the coating buffer (35 mM NaHCO₃, 15 mM Na₂CO₃, pH 9.6). 100 μL of the diluted solution was added to each well of the enzyme-linked plate and incubated overnight at 4° C. Then, the plate was washed three times with PBST (0.05% Tween 20-PBS, pH 7.2). 300 μL of blocking buffer (1% BSA, 0.05% Tween20-PBS, pH 7.2) was added to the plate and left to stand at room temperature for 2 hours. The plate was washed three times with PBST again. The corresponding bispecific antibody or the control antibody hIgG1 was added to each well and incubated at room temperature for 1 hour. The precipitate was washed three times with PBST. 100 μL of HRP-goat anti-human IgG secondary antibody (Jackson ImmunoResearch, 109-036-170) diluted with the blocking buffer was added to each well and incubated at room temperature for 1 hour. The plate was washed three times with PBST. TMB was added to each well. A reaction was performed at room temperature in the dark for 2 min to 5 min. The reaction was terminated by adding 2 M sulfuric acid to each well. OD450 values were read using a microplate reader.

[10] = target: T10, human CD16A antigen (ACRO biosystems, CDD-H52W1) (human, UniProt P08637 17-208, limits assumed); experiment: ELISA, plate coated with human CD16A at 2 µg/mL, HRP-goat anti-human IgG, OD450
T10 construct: Bought protein; also called human CD16A protein
T10 sequence (P08637 17-208 limits assumed): as the sequence (P08637 17-208) above
Protocol: as §4

[11] = target: T11, Human B7H6 (ACRO biosystems, B76-H52H8) (human, UniProt Q68D85 25-262); experiment: ELISA, plate coated with human B7H6 at 2 µg/mL, HRP-goat anti-human IgG, OD450
T11 construct: Bought protein; also called human B7H6 protein; B7H6 antigen
T11 sequence (looked up): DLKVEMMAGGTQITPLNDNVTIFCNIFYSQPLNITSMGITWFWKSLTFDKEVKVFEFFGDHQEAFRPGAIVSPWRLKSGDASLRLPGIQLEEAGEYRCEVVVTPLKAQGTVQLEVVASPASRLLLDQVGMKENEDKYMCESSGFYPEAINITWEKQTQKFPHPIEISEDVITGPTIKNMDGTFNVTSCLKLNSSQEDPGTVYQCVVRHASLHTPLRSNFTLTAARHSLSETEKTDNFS
Protocol: (§5) Human B7H6 (ACRO biosystems, B76-H52H8) or human CD16A antigen (ACRO biosystems, Catalog No. CDA-H5220) was diluted to 2 μg/mL with the coating buffer (35 mM NaHCO₃, 15 mM Na₂CO₃, pH 9.6). 100 μL of the diluted solution was added to each well of the enzyme-linked plate and incubated overnight at 4° C. Then, the plate was washed three times with PBST (0.05% Tween 20-PBS, pH 7.2). 300 μL of blocking buffer (1% BSA, 0.05% Tween20-PBS, pH 7.2) was added to the plate and left to stand at room temperature for 2 hours. The plate was washed three times with PBST again. The corresponding bispecific antibody or control antibody hIgG was added to each well and incubated at room temperature for 1 hour. Again, the plate was washed three times with PBST. 100 μL of HRP-goat anti-human IgG secondary antibody (Jackson ImmunoResearch, 109-036-170) diluted with the blocking buffer was added to each well and incubated at room temperature for 1 hour. After incubation, the precipitate was washed three times with PBST. TMB was added to each well. A reaction was performed at room temperature in the dark for 2 min to 5 min. The reaction was terminated by adding 2 M sulfuric acid to each well. OD450 values were read using a microplate reader.

[12] = target: T4, human CD16A^158F (ACRO biosystems, …); experiment: ELISA, plate coated with human CD16A at 2 µg/mL, HRP-goat anti-human IgG, OD450
Protocol: as §5

T1 sequence (O75015 17-200 N65S/A78D limits assumed): as the sequence (O75015 other isoform, or with tags, fused parts or gaps limits assumed) above, with R20S, N49S, A62D, D66N, V90I counted along it

B1: murine CD16A antibody m40F5 (antibody, mouse IgG2a, kappa)
heavy: DVQLQESGPGLVKPSQSLSLTCTVTGYSITSDYAWNWIRQFPGNKLEWMGYISYSGYTNYNPSLESRISVTRDTSKNQFFLQLNSVTTEDTATYYCAREVGLRLGWFAYWGQGTLVAVSAAKTTAPSVYPLAPVCGDTTGSSVTLGCLVKGYFPEPVTLTWNSGSLSSGVHTFPAVLQSDLYTLSSSVTVTSSTWPSQSITCNVAHPASSTKVDKKIEPRGPTIKPCPPCKCPAPNLLGGPSVFIFPPKIKDVLMISLSPIVTCVVVDVSEDDPDVQISWFVNNVEVHTAQTQTHREDYNSTLRVVSALPIQHQDWMSGKEFKCKVNNKDLPAPIERTISKPKGSVRAPQVYVLPPPEEEMTKKQVTLTCMVTDFMPEDIYVEWTNNGKTELNYKNTEPVLDSDGSYFMYSKLRVEKKNWVERNSYSCSVVHEGLHNHHTTKSFSRTPGK
light: SIVMTQTPKFLLISAGDRVTITCKASQSVNNDVAWYQQKPGQSPKLLIYYASNRYTGVPDHFTGSGYGTDFTFTISTVQAEDLAVYFCQQHYSSPWTFGGGTKLEFKRADAAPTVSIFPPSSEQLTSGGASVVCFLNNFYPKDINVKWKIDGSERQNGVLNSWTDQDSKDSTYSMSSTLTLTKDEYERHNSYTCEATHKTSTSPIVKSFNRNEC
notes: also called murine m40F5 antibody; murine 40F5
binding result [1]: no binding (tested: 10^4 ng/ml) | binding result [2]: no binding (tested: 10^4 ng/ml) | binding result [3]: no binding (tested: 10^4 ng/ml) | EC50 (read off the curve) [4]: ~0.02 µg/mL | EC50 (read off the curve) [5]: ~0.03 µg/mL | EC50 (read off the curve) [6]: ~0.02 µg/mL | EC50 (read off the curve) [7]: ~0.02 µg/mL | EC50 (read off the curve) [8]: ~0.005 µg/mL

B2: bispecific antibody CD16A×BCMA (bispecific antibody, human IgG1, L234A L235A)
chain 1: not shown
chain 2: DIQMTQSPSSLSASVGDRVTITCSASQDISNYLNWYQQKPGKAPKLLIYYTSNLHSGVPSRFSGSGSGTDFTLTISSLQPEDFATYYCQQYRKLPWTFGQGTKLEIKRGGGGSGGGGSGGGGSQVQLVQSGAEVKKPGSSVKVSCKASGGTFSNYWMHWVRQAPGQGLEWMGATYRGHSDTYYNQKFKGRVTITADKSTSTAYMELSSLRSEDTAVYYCARGAIYDGYDVLDNWGQGTLVTVSSEPKSCDKTHTCPPCPAPEAAGGPSVFLFPPKPKDTLMISRTPEVTCVVVDVSHEDPEVKFNWYVDGVEVHNAKTKPREEQYNSTYRVVSVLTVLHQDWLNGKEYKCKVSNKALPAPIEKTISKAKGQPREPQVCTLPPSREEMTKNQVSLSCAVKGFYPSDIAVEWESNGQPENNYKTTPPVLDSDGSFFLVSKLTVDKSRWQQGNVFSCSVMHEALHNHYTQKSLSLSPGK
notes: also called CD16A×BCMA bispecific antibody
EC50 (read off the curve) [9]: ~0.006 µg/mL | EC50 (read off the curve) [10]: ~0.04 µg/mL

B3: bispecific antibody CD16A×B7H6 (bispecific antibody, human IgG1, L234A L235A)
chain 1: not shown
chain 2: DIVLTQTPLSLSVTPGQPASISCKASQSVDYDGDSYMNWYLQKPGQPPQLLIYAASTLHSGIPDRFSGSGSGTDFTLKISRVEAEDVGVYYCQQSKEDPRTFGQGTKLEIKGGGGSGGGGSGGGGSEVQLVQSGAEVKKPGASVKVSCKASGYTFTDYNMDWVRQAPGQGLEWIGDINPNNGGTLYNQKFRGRVTLTVDTSISTAYMELSRLRSDDTAVYYCARSEVFYGNYADYWGQGTTVTVSSEPKSCDKTHTCPPCPAPEAAGGPSVFLFPPKPKDTLMISRTPEVTCVVVDVSHEDPEVKFNWYVDGVEVHNAKTKPREEQYNSTYRVVSVLTVLHQDWLNGKEYKCKVSNKALPAPIEKTISKAKGQPREPQVCTLPPSREEMTKNQVSLSCAVKGFYPSDIAVEWESNGQPENNYKTTPPVLDSDGSFFLVSKLTVDKSRWQQGNVFSCSVMHEALHNHYTQKSLSLSPGK
notes: also called CD16A×B7H6 bispecific antibody
EC50 (read off the curve) [11]: ~0.005 µg/mL | EC50 (read off the curve) [12]: ~0.05 µg/mL
